Measurements as given in the supplement of paper PMC10266784.

B1: library; numbered along this chain (parent)
chain: MAAAAAAAAEQQSSNGPVKKSMREKAVERRSVNKEHNSNFKAGYIPIDEDRLHKTGLRGRKGNLAICVIILLFILAVINLIITLVIWAVIRIGPNGCDSMEFHESGLLRFKQVSDMGVIHPLYKSTVGGRRNENLVITGNNQPIVFQQGTTKLSVENNKTSITSDIGMQFFDPRTQNILFSTDYETHEFHLPSGVKSLNVQKASTERITSNATSDLNIKVDGRAIVRGNEGVFIMGKTIEFHMGGNMELKAENSIILNGSVMVSTTRLPSSSSGDQLGSGDWVRYKLCMCADGTLFKVQVTSQNMGCQISDNPCGNTH

Variants of: B1
Assay: SGCB cell-surface expression functional score (HA stain, bin4 vs bin1, normalised to synonymous) (log10 ratio); higher = more cell-surface SGCB (functional)
In short: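 The functional score is a log ratio of variant frequency in the highest versus the lowest intensity bin, expressed as a median over codons and duplicate transductions. Codon-saturation libraries of HA-tagged, YFP-fused human beta-sarcoglycan were transduced by lentivirus at MOI <0.1 into HEK293 cells stably expressing alpha-, gamma- and delta-sarcoglycan, and the cells were stained on ice with Alexa Fluor 647 anti-HA, fixed and sorted into four 5% intensity bins before amplicon sequencing. Synonymous variants were scaled to mean 0, SD 0.5 within each section.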

SGCB cell-surface expression functional score (log10) of substitutions, site by site:
F146: R -1.45 | W -1.15 | L 0.18 | I 0.28 | E -0.7 | P -1.14 | V -0.32 | T -1.45 | N -1.08 | G -0.94 | S -0.84 | D -1.36 | K -0.93 | Q -1.34 | H -0.89 | A -1.22 | C -0.47 | Y -0.75 | M -0.56
Q142: K -0.31 | P -1.08 | E -0.04 | L -0.54 | V -0.05 | N -0.43 | I -0.41 | M 0.97 | C -0.01 | G -0.22 | D -0.54 | T -0.17 | W 0.21 | Y -0.3 | S 0.05 | F 0.14 | H -0.52 | R -0.5 | A -0.06
G139: P -1.13 | D -0.84 | N 0.52 | A -0.13 | T -0.23 | K -1.52 | L -1.18 | W -0.74 | H -1.79 | S 0.06 | M -1.05 | V -1.28 | C -0.65 | R -0.98 | I -0.91 | Y -1.89 | E -0.91 | Q -1.77 | F -1.58
Q147: E 0.33 | L -0.21 | G -0.41 | A 0.19 | F -0.65 | R -0.06 | H -0.39 | N 0.29 | D -0.27 | M -0.04 | I -0.06 | K 0.26 | P -0.68 | C 0.5
N140: V 0.16 | D -0.24 | I -0.12 | W -0.93 | T -0.19 | K -0.48 | S -0.38 | A -0.08 | G 0.06 | C -0.04 | P -0.49 | H -0.65 | R 0.05 | E 0.35 | L -0.39 | F -0.56 | Q -0.33 | Y -0.05 | M -0.05
I144: Y -1.1 | C -0.33 | V 0.47 | S -0.8 | W -1.4 | F -0.77 | E -1.11 | K -1.07 | L -0.46 | N -0.97 | M -0.89 | D -0.57 | A -0.98 | Q -0.96 | H -0.73 | T -0.64 | R -1.06 | P -1.22 | G -0.85
P143: G -0.72 | S -0.44 | A -0.21 | T -0.41 | H -0.41 | K -0.28 | F -0.1 | M 0.69 | D -0.9 | C 0.07 | R -0.34 | I -0.11 | E -0.73 | Q -0.7 | N -0.09 | Y -0.63 | L -0.54 | V 0.07
V145: F -0.11 | T 0.04 | Y -0.43 | H -0.24 | R -0.43 | K -0.12 | G -0.81 | C -0.73 | I 0.52 | P -1.15 | E -0.03 | M -0.9 | Q -0.39 | N -0.26 | S -0.31 | A -0.01 | L -0.09 | W -0.57 | D -0.79
T138: Y -0.33 | W 0.68
N141: L -0.45 | H -0.24 | M 0.71 | K -0.5 | D -0.21 | W -0.63 | T -0.25 | G -0.3 | S 0.17 | I -0.7 | P -0.87 | V -0.25 | C 0.03 | Q -0.08 | R 0.07 | F -0.33 | A -0.39 | Y -0.56 | E -0.4
